Data set [1] concerns the target T1, ttRecR (Thermus thermophilus HB8, UniProt Q5SHY0 1-194).
T1 sequence: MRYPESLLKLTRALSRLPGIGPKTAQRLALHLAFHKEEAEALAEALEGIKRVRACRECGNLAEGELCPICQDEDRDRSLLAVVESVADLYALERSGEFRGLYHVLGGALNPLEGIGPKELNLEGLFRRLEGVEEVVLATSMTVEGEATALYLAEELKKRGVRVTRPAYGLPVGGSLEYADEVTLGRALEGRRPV
In words: EMSA.

The target in data set [2] is T2, ttSSB (Thermus thermophilus HB8, UniProt Q5SLP9 1-263).
T2 sequence: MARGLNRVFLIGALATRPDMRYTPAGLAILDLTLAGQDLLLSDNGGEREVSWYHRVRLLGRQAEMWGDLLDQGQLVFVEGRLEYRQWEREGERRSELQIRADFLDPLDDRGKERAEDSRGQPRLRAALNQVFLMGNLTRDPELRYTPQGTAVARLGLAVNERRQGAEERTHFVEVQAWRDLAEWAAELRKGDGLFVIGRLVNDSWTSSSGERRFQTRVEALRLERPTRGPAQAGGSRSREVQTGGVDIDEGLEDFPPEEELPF
In words: pull-down.

B1: 66-mer ssDNA (ssDNA)
DNA: CTTATTAAAACGGCAACTCCTCCTCCGGCGGAAAGTCTTCCAAGCCTTCGTCAATGTCCACCCCAC
As for B1, the binding result in data set [1] was “no binding”.

B2: 60-mer ssDNA (ssDNA)
DNA: GCCAAGCTTGCATGCCTGCAGGTCGACTCTAGAGGATCCCCGGGTACCGAGCTCGAATTC
In the case of B2, the binding result in data set [2] was “binds”.
